Assay results published in US20040087777A1.

Assays:
Assay in all cases: rNET
… analog, Residue 1 = H = target: … analog, Residue 1 = H
… analog, Residue 3 = K = target: … analog, Residue 3 = K
… analog, Residue 1 = V = target: … analog, Residue 1 = V
… analog, Residue 1 = R = target: … analog, Residue 1 = R

murine monoclonal antibody 3D6 gave an OD (… analog, Residue 1 = H) of 0.054 OD, an OD (… analog, Residue 3 = K) of 0.053 OD and an OD (… analog, Residue 1 = V) of 0.057 OD. The OD (… analog, Residue 1 = R) was 0.056 OD.
